# Patent publication US20020082410, “Insulin promoter factor, and uses related thereto” (Curis, Inc., published 2002)
# B1: P1 wild-type insulin promoter element (dsDNA)
# DNA 1: GCCCTTAATGGGCCAAACGGCA
# DNA 2: TGCCGTTTGGCCCATTAAGGGC
# Molecular target: Ipf1 (IPF1, Pdx1) (Mus musculus, UniProt P52946 SEQ:1-284)
# Experiment: EMSA; same mobility as IPF1 from betaTC1 nuclear extract; competition with wild-type and mutant P1 sites showed same specificity as endogenous IPF1
# Conditions: tags: none; rabbit reticulocyte lysate from full-length cDNA in pGEM3
# Description: RNA prepared from the IPF1 cDNA template was translated in vitro and the DNA binding specificity of the in vitro translation product was determined using an electrophoretic mobility shift assay (EMSA) and the insulin promoter PI site as a probe (Ohisson et al., (1991) Mol Endocrin 5:897-904; see also Materials and Methods below). The in vitro translation product bound to the P1 element and migrated to the same relative position in the gel as IPF1 from the βTC1 nuclear extract.
# Ipf1 (IPF1, Pdx1), sequence (P52946 other isoform, or with tags, fused parts or gaps): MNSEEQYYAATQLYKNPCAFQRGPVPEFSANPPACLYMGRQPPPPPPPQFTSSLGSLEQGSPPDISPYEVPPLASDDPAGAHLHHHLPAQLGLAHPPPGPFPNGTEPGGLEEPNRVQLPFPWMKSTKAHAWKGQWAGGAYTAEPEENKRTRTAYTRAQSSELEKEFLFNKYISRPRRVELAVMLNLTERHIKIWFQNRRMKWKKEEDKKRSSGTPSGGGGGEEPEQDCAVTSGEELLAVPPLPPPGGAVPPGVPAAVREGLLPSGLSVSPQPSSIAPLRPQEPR
binder,measurement,value
B1,binding result,binds
